Consider 167 variants from the RNAGym collection of RNA variant scans (doi:10.7554/elife.90254).

B1: LINE1-mini (parent)
chain: GGCAGAGCUCAACACAGCGUGGCAAAGUGGCUGUGGCUAGACUGCC

In this series the parent is B1. As to the kind of experiment: self-cleavage, relative activity (ratio to wild type); higher = more cleavage; in vitro, sequencing; the parent is a self-cleaving ribozyme.
For the variant A6G G17C, the self-cleavage amounted to 0.09.
As to A6G G17U, the self-cleavage stood at 0.04.
Consider A6C G30A, for which the self-cleavage came out at 1.01.
In the case of A6C G30U, the self-cleavage was 0.9.
A6C G30C: the self-cleavage turned out to be 0.2.
On to A6U G36C, for which the self-cleavage came to 0.25.
Turning to A6U G36U, the self-cleavage was 0.08.
For A6U G36A, the self-cleavage turned out to be 0.26.
A6G C10G: the self-cleavage was found to be 0.02.
As to A6G C10A, the self-cleavage is 0.03.
Turning to A6G C10U, the self-cleavage worked out at 0.04.
For A6U G7A the value was 0.26.
Turning to A6U G7C, the self-cleavage was determined as 0.19.
The value for A6U G7U was 0.14; that for A6C G27U was 0.56.
On to A6C G27A, for which the self-cleavage came out at 0.5.
For A6C G27C, the self-cleavage came out at 0.57.
Regarding A6G G44U, the self-cleavage amounted to 0.13.
On to A6G G44A, for which the self-cleavage came out at 0.46.
As to A6G G44C, the self-cleavage came to 0.14.
As for A6U G40A, the self-cleavage was 0.35.
The value for A6U G40C was 0.15.
A6U G40U: the self-cleavage was 0.3.
For A6G G27U, the self-cleavage came out at 0.08.
In the case of A6G G27A, the self-cleavage stood at 0.14.
On to A6G G27C, for which the self-cleavage came out at 0.07.
For A6U C31A the value was 0.38.
On to A6U C31G, for which the self-cleavage came to 0.13.
Consider A6U C31U, for which the self-cleavage came to 0.31.
For A6G A26U the value was 0.1; for A6G A26G, 0.1.
For the variant A6G A26C, the self-cleavage is 0.14.
Turning to A6U A25G, the self-cleavage was determined as 0.47.
In the case of A6U A25C, the self-cleavage turned out to be 0.65.
In the case of A6U A25U, the self-cleavage is 0.72.
Take A6G C8U: the self-cleavage amounted to 0.22.
Consider A6G C8G, for which the self-cleavage is 0.08.
Consider A6G C8A, for which the self-cleavage was found to be 0.15.
On to A6G G30C, for which the self-cleavage is 0.13.
On to A6G G30U, for which the self-cleavage was found to be 0.13.
Turning to A6G G30A, the self-cleavage turned out to be 0.19.
As to A6G C37G, the self-cleavage was 0.07.
The value for A6G C37A was 0.05; that for A6G C37U was 0.03; that for A6U C13U was 0.11.
With A6U C13A, the self-cleavage was found to be 0.2.
Take A6U C13G: the self-cleavage amounted to 0.28.
For the variant A6G C13U, the self-cleavage came to 0.15.
For A6G C13A, the self-cleavage came to 0.19.
On to A6G C13G, for which the self-cleavage came to 0.13.
A6U U20C: the self-cleavage was found to be 0.3.
For the variant A6U U20A, the self-cleavage was 0.37.
For A6U U20G the value was 0.55.
For the variant A6G A24C, the self-cleavage was determined as 0.13.
The value for A6G A24U was 0.19.
For A6G A24G the value was 0.12; for A6C G40C, 0.1.
As for A6C G40U, the self-cleavage amounted to 0.15.
For A6C G40A the value was 0.11.
A6G U20G: the self-cleavage was determined as 0.13.
Regarding A6G U20A, the self-cleavage amounted to 0.04.
As to A6G U20C, the self-cleavage worked out at 0.1.
The value for A6U U38C was 0.27.
With A6U U38G, the self-cleavage was found to be 0.04.
For A6U U38A the value was 0.23.
Consider A6U C46A, for which the self-cleavage came out at 0.74.
In the case of A6U C46U, the self-cleavage turned out to be 0.75.
For A6U C46G, the self-cleavage came to 0.41.
As to A6U G33A, the self-cleavage was 0.1.
In the case of A6U G33U, the self-cleavage is 0.16.
For the variant A6U G33C, the self-cleavage amounted to 0.43.
Take A6G C46G: the self-cleavage stood at 0.08.
The value for A6G C46U was 0.09; that for A6G C46A was 0.13; that for G7A A11C was 0.03.
The value for G7A A11U was 0.03.
For G7A A11G the value was 0.02.
A6U G22A: the self-cleavage came out at 0.57.
Turning to A6U G22U, the self-cleavage was 0.79.
Consider A6U G22C, for which the self-cleavage stood at 0.37.
In the case of A6G U28C, the self-cleavage was found to be 0.05.
For A6G U28A, the self-cleavage came out at 0.05.
Take A6G U28G: the self-cleavage came to 0.09.
Turning to A6G U34C, the self-cleavage came out at 0.09.
As to A6G U34A, the self-cleavage amounted to 0.04.
The value for A6G U34G was 0.04; that for A6G A12U was 0.09.
Take A6G A12G: the self-cleavage is 0.03.
A6G A12C: the self-cleavage amounted to 0.05.
For the variant G7A, the self-cleavage came out at 0.2.
With A6G U43A, the self-cleavage worked out at 0.15.
Consider A6G U43C, for which the self-cleavage came to 0.09.
In the case of A6G U43G, the self-cleavage was 0.
With A6U C37G, the self-cleavage is 0.04.
The value for A6U C37A was 0.08.
A6U C37U: the self-cleavage amounted to 0.07.
For the variant A6G G21U, the self-cleavage was 0.13.
Turning to A6G G21A, the self-cleavage was found to be 0.23.
With A6G G21C, the self-cleavage was determined as 0.13.
Take A6G A16U: the self-cleavage came to 0.06.
A6G A16C: the self-cleavage came to 0.04.
For A6G A16G the value was 0.12; for A6U U32G, 0.13; for A6U U32C, 0.1.
Consider A6U U32A, for which the self-cleavage was 0.15.
Consider A6U C18G, for which the self-cleavage was determined as 0.24.
Turning to A6U C18U, the self-cleavage turned out to be 0.93.
Take A6U C18A: the self-cleavage stood at 0.52.
Consider A6G U38A, for which the self-cleavage is 0.06.
With A6G U38C, the self-cleavage stood at 0.07.
For A6G U38G the value was 0.01; for A6U C10U, 0.12; for A6U C10A, 0.07.
For A6U C10G, the self-cleavage amounted to 0.06.
On to A6G G22C, for which the self-cleavage was determined as 0.07.
The value for A6G G22U was 0.12; that for A6G G22A was 0.11; that for A6G C42G was 0.04.
In the case of A6G C42A, the self-cleavage stood at 0.12.
With A6G C42U, the self-cleavage is 0.07.
For A6U G21A the value was 2.16; for A6U G21C, 0.52.
The value for A6U G21U was 0.76.
Consider A6U A11C, for which the self-cleavage turned out to be 0.06.
As for A6U A11U, the self-cleavage stood at 0.09.
Consider A6U A11G, for which the self-cleavage came to 0.04.
Turning to A6G C18A, the self-cleavage was 0.11.
Consider A6G C18U, for which the self-cleavage was found to be 0.08.
Turning to A6G C18G, the self-cleavage turned out to be 0.11.
For A6U C42A, the self-cleavage turned out to be 0.17.
For the variant A6U C42G, the self-cleavage stood at 0.05.
As to A6U C42U, the self-cleavage came out at 0.42.
On to G7A A39U, for which the self-cleavage was found to be 0.25.
The value for G7A A39G was 0.07; that for G7A A39C was 0.08.
Take G7A A24U: the self-cleavage came to 0.16.
For G7A A24G the value was 0.16; for G7A A24C, 0.12.
Consider G7A C8G, for which the self-cleavage amounted to 0.17.
For the variant G7A C8U, the self-cleavage came out at 0.43.
With G7A C8A, the self-cleavage was determined as 0.35.
Take A6G: the self-cleavage came to 0.12.
Regarding A6U, the self-cleavage amounted to 0.7.
On to A6C U20C, for which the self-cleavage turned out to be 0.33.
Take A6C U20G: the self-cleavage worked out at 0.35.
In the case of A6C U20A, the self-cleavage turned out to be 0.52.
In the case of A6U G19A, the self-cleavage was 0.64.
A6U G19C: the self-cleavage was 0.45.
For A6U G19U the value was 0.46; for A6C G33U, 0.09.
A6C G33C: the self-cleavage is 0.07.
As for A6C G33A, the self-cleavage was 0.06.
For A6C G35A, the self-cleavage was determined as 0.08.
As to A6C G35U, the self-cleavage came to 0.09.
With A6C G35C, the self-cleavage worked out at 0.05.
In the case of A6G G40C, the self-cleavage was found to be 0.05.
For the variant A6G G40U, the self-cleavage was 0.1.
As for A6G G40A, the self-cleavage turned out to be 0.1.
In the case of A6G G35C, the self-cleavage was found to be 0.12.
For A6G G35A the value was 0.05; for A6G G35U, 0.08.
In the case of A6C G22U, the self-cleavage was determined as 0.57.
Regarding A6C G22A, the self-cleavage amounted to 0.66.
For the variant A6C G22C, the self-cleavage came to 0.65.
A6U G35C: the self-cleavage stood at 0.16.
As to A6U G35U, the self-cleavage turned out to be 0.2.
Consider A6U G35A, for which the self-cleavage is 0.12.
